B1: PTPN9 (parent)
chain: IDFLRVVRNQQSLAVSNMGARSKG

Variants of: B1
Assay: protein stability index of a GFP-peptide fusion (GPS, HEK-293T) (PSI 1-6); higher = more stable
Conditions: c terminus: a fixed tail appended
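Further: lentivirally expressed fusions sorted by FACS into six bins by GFP to DsRed ratio, PSI derived from sequencing read proportions per bin multiplied by bin number.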

Going from LDFLRVVRNQQSLAVSNMGARSKG [I1L] to QDFLRVVRNQQSLAVSNMGARSKG [I1Q], the protein stability index rises from 2.95 to 4.35.

Compared with PDFLRVVRNQQSLAVSNMGARSKG [I1P], RDFLRVVRNQQSLAVSNMGARSKG [I1R] is lower in protein stability index: 4.25 for the first, 3.35 for the second.

Going from GDFLRVVRNQQSLAVSNMGARSKG [I1G] to ADFLRVVRNQQSLAVSNMGARSKG [I1A], the protein stability index falls from 3.72 to 3.18.

First: HDFLRVVRNQQSLAVSNMGARSKG [I1H]
Second: TDFLRVVRNQQSLAVSNMGARSKG [I1T]
The protein stability index of the first is higher: 3.96 for the first, 3.43 for the second.

First: FDFLRVVRNQQSLAVSNMGARSKG [I1F]
Second: DDFLRVVRNQQSLAVSNMGARSKG [I1D]
The protein stability index of the first is lower: 2.75 for the first, 4.38 for the second.

Going from CDFLRVVRNQQSLAVSNMGARSKG [I1C] to EDFLRVVRNQQSLAVSNMGARSKG [I1E], the protein stability index rises from 2.8 to 4.

Compared with MDFLRVVRNQQSLAVSNMGARSKG [I1M], KDFLRVVRNQQSLAVSNMGARSKG [I1K] is higher in protein stability index: 2.96 for the first, 3.59 for the second.

Compared with SDFLRVVRNQQSLAVSNMGARSKG [I1S], YDFLRVVRNQQSLAVSNMGARSKG [I1Y] is higher in protein stability index: 3.1 for the first, 3.47 for the second.

Going from VDFLRVVRNQQSLAVSNMGARSKG [I1V] to NDFLRVVRNQQSLAVSNMGARSKG [I1N], the protein stability index rises from 3.03 to 3.83.

IDFLRKVRNQQSLAVSNMGARSKG [V6K] and IDFLRQVRNQQSLAVSNMGARSKG [V6Q] are the same in protein stability index: 2.8 for the first, 2.8 for the second.

First: IDFLRRVRNQQSLAVSNMGARSKG [V6R]
Second: IDFLRDVRNQQSLAVSNMGARSKG [V6D]
The protein stability index of the first is lower: 2.38 for the first, 3.26 for the second.

Going from IDFLRGVRNQQSLAVSNMGARSKG [V6G] to IDFLRTVRNQQSLAVSNMGARSKG [V6T], the protein stability index falls from 3.53 to 3.23.

First: IDFLRCVRNQQSLAVSNMGARSKG [V6C]
Second: IDFLRAVRNQQSLAVSNMGARSKG [V6A]
The protein stability index of the first is lower: 2.42 for the first, 3.12 for the second.

First: IDFLRPVRNQQSLAVSNMGARSKG [V6P]
Second: IDFLRYVRNQQSLAVSNMGARSKG [V6Y]
The protein stability index of the first is higher: 3.31 for the first, 2.13 for the second.

Going from IDFLRIVRNQQSLAVSNMGARSKG [V6I] to IDFLRNVRNQQSLAVSNMGARSKG [V6N], the protein stability index rises from 1.99 to 3.35.

Compared with IDFLRMVRNQQSLAVSNMGARSKG [V6M], IDFLRFVRNQQSLAVSNMGARSKG [V6F] is higher in protein stability index: 1.99 for the first, 2.26 for the second.

First: IDFLRSVRNQQSLAVSNMGARSKG [V6S]
Second: IDFLRLVRNQQSLAVSNMGARSKG [V6L]
The protein stability index of the first is higher: 3.36 for the first, 2.5 for the second.

Compared with IDFLREVRNQQSLAVSNMGARSKG [V6E], IDFLRHVRNQQSLAVSNMGARSKG [V6H] is lower in protein stability index: 3.36 for the first, 2.67 for the second.

First: IDFLRWVRNQQSLAVSNMGARSKG [V6W]
Second: IDFLIVVRNQQSLAVSNMGARSKG [R5I]
The protein stability index of the first is higher: 2.74 for the first, 2.69 for the second.

Compared with IDFLLVVRNQQSLAVSNMGARSKG [R5L], IDFLNVVRNQQSLAVSNMGARSKG [R5N] is higher in protein stability index: 2.38 for the first, 3.24 for the second.

IDFLMVVRNQQSLAVSNMGARSKG [R5M] and IDFLGVVRNQQSLAVSNMGARSKG [R5G] are the same in protein stability index: 2.81 for the first, 2.81 for the second.

First: IDFLAVVRNQQSLAVSNMGARSKG [R5A]
Second: IDFLFVVRNQQSLAVSNMGARSKG [R5F]
The protein stability index of the first is lower: 2.06 for the first, 2.88 for the second.

First: IDFLWVVRNQQSLAVSNMGARSKG [R5W]
Second: IDFLQVVRNQQSLAVSNMGARSKG [R5Q]
The protein stability index of the first is lower: 2 for the first, 3.27 for the second.

Compared with IDFLCVVRNQQSLAVSNMGARSKG [R5C], IDFLPVVRNQQSLAVSNMGARSKG [R5P] is higher in protein stability index: 1.48 for the first, 3.73 for the second.

Compared with IDFLSVVRNQQSLAVSNMGARSKG [R5S], IDFLHVVRNQQSLAVSNMGARSKG [R5H] is higher in protein stability index: 3 for the first, 3.15 for the second.

Compared with IDFLYVVRNQQSLAVSNMGARSKG [R5Y], IDFLKVVRNQQSLAVSNMGARSKG [R5K] is lower in protein stability index: 2.54 for the first, 2.39 for the second.

First: IDFLTVVRNQQSLAVSNMGARSKG [R5T]
Second: IDFLVVVRNQQSLAVSNMGARSKG [R5V]
The protein stability index of the first is higher: 2.45 for the first, 1.83 for the second.

First: IDFLEVVRNQQSLAVSNMGARSKG [R5E]
Second: IDFLDVVRNQQSLAVSNMGARSKG [R5D]
The protein stability index of the first is lower: 3.47 for the first, 3.71 for the second.

Going from IDFLRVRRNQQSLAVSNMGARSKG [V7R] to IDFLRVERNQQSLAVSNMGARSKG [V7E], the protein stability index rises from 3.37 to 3.73.

First: IDFLRVKRNQQSLAVSNMGARSKG [V7K]
Second: IDFLRVPRNQQSLAVSNMGARSKG [V7P]
The protein stability index of the first is lower: 2.66 for the first, 2.94 for the second.

Compared with IDFLRVMRNQQSLAVSNMGARSKG [V7M], IDFLRVNRNQQSLAVSNMGARSKG [V7N] is higher in protein stability index: 2.03 for the first, 3.53 for the second.

Going from IDFLRVFRNQQSLAVSNMGARSKG [V7F] to IDFLRVWRNQQSLAVSNMGARSKG [V7W], the protein stability index rises from 1.84 to 2.91.

Compared with IDFLRVYRNQQSLAVSNMGARSKG [V7Y], IDFLRVARNQQSLAVSNMGARSKG [V7A] is higher in protein stability index: 2.23 for the first, 3.7 for the second.

First: IDFLRVCRNQQSLAVSNMGARSKG [V7C]
Second: IDFLRVQRNQQSLAVSNMGARSKG [V7Q]
The protein stability index of the first is higher: 3.07 for the first, 2.97 for the second.

First: IDFLRVLRNQQSLAVSNMGARSKG [V7L]
Second: IDFLRVDRNQQSLAVSNMGARSKG [V7D]
The protein stability index of the first is lower: 1.85 for the first, 3.16 for the second.

Compared with IDFLRVHRNQQSLAVSNMGARSKG [V7H], IDFLRVSRNQQSLAVSNMGARSKG [V7S] is higher in protein stability index: 3.26 for the first, 3.61 for the second.

First: IDFLRVGRNQQSLAVSNMGARSKG [V7G]
Second: IDFLRVIRNQQSLAVSNMGARSKG [V7I]
The protein stability index of the first is higher: 2.96 for the first, 2.41 for the second.

Going from IDFLRVTRNQQSLAVSNMGARSKG [V7T] to ISFLRVVRNQQSLAVSNMGARSKG [D2S], the protein stability index falls from 2.98 to 2.55.

Going from IRFLRVVRNQQSLAVSNMGARSKG [D2R] to IGFLRVVRNQQSLAVSNMGARSKG [D2G], the protein stability index rises from 2.03 to 2.64.

First: IIFLRVVRNQQSLAVSNMGARSKG [D2I]
Second: IPFLRVVRNQQSLAVSNMGARSKG [D2P]
The protein stability index of the first is lower: 2.35 for the first, 2.54 for the second.

Compared with ITFLRVVRNQQSLAVSNMGARSKG [D2T], INFLRVVRNQQSLAVSNMGARSKG [D2N] is higher in protein stability index: 2.05 for the first, 2.06 for the second.

Compared with IAFLRVVRNQQSLAVSNMGARSKG [D2A], ILFLRVVRNQQSLAVSNMGARSKG [D2L] is lower in protein stability index: 1.82 for the first, 1.53 for the second.

Going from IKFLRVVRNQQSLAVSNMGARSKG [D2K] to IMFLRVVRNQQSLAVSNMGARSKG [D2M], the protein stability index falls from 1.42 to 1.38.

First: IEFLRVVRNQQSLAVSNMGARSKG [D2E]
Second: IHFLRVVRNQQSLAVSNMGARSKG [D2H]
The protein stability index of the first is higher: 2.54 for the first, 2.41 for the second.

Going from IQFLRVVRNQQSLAVSNMGARSKG [D2Q] to IFFLRVVRNQQSLAVSNMGARSKG [D2F], the protein stability index rises from 1.88 to 2.33.

First: ICFLRVVRNQQSLAVSNMGARSKG [D2C]
Second: IYFLRVVRNQQSLAVSNMGARSKG [D2Y]
The protein stability index of the first is higher: 2.06 for the first, 1.78 for the second.

First: IWFLRVVRNQQSLAVSNMGARSKG [D2W]
Second: IVFLRVVRNQQSLAVSNMGARSKG [D2V]
The protein stability index of the first is lower: 2.16 for the first, 2.84 for the second.

— the supplement of paper PMC10567573
